From US20250163140A1 (Kyowa Kirin, published 2025)
Like-named read-outs stand apart in the source and are kept apart here.

What was measured:
[1] = target: T1, monkey FcRn (monkey FcRn-His tag with monkey β2 microglobulin) (cynomolgus monkey, UniProt Q8SPV9 24-297; Q8SPW0 21-119); assay: SPR pH 6, FcRn-His captured by anti-His, antibody analyte
T1 construct: also called cyno FcRn; cynomolgus monkey FcRn extracellular domain His-tag body

[2] = target: T2, human FcRn (human FcRn-His tag with human β2 microglobulin) (human, UniProt P55899 24-297; P61769 21-119); assay: as above
T2 construct: also called h FcRn; hFcRn
T2 sequence (P55899 other isoform, or with tags, fused parts or gaps limits assumed, chain 1 of 2): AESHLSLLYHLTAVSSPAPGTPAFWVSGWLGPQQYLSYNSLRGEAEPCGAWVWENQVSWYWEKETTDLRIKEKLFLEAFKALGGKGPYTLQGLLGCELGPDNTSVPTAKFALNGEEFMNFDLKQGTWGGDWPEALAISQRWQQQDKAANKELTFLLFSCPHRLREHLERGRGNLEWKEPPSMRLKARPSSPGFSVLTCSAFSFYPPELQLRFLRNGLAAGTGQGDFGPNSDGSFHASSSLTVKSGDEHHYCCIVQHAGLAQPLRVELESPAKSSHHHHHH
T2 sequence (P61769 21-119 limits assumed, chain 2 of 2): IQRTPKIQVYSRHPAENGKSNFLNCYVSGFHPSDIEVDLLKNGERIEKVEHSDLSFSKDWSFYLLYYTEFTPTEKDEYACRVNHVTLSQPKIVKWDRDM

[3] = target: T3, Recombinant Human FGF-23 (R&D Systems, Cat No. 2604-FG-025/CF) (human, UniProt Q9GZV9 25-251); assay: cell-based or functional assay
T3 sequence (looked up): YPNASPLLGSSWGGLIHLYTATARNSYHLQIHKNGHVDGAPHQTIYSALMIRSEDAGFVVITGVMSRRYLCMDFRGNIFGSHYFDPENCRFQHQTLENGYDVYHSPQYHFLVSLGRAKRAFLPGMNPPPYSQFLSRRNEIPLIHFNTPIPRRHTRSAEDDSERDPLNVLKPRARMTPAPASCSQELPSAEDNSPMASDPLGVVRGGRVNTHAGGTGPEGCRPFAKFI

[4] = target: T3, Recombinant Human FGF-23 (R&D Systems, …); assay: SPR, antibody captured on Protein A chip, FGF-23 analyte
[5] = target: T3, Recombinant Human FGF-23 (R&D Systems, …); assay: SPR, antibody captured by anti-human IgG, FGF-23 analyte
[6] = target: T3, Recombinant Human FGF-23 (R&D Systems, …); assay: cell-based or functional assay; remark: listed apart in the source

T1 sequence (Q8SPV9 other isoform, or with tags, fused parts or gaps limits assumed, chain 1 of 2): as the sequence (P55899 other isoform, or with tags, fused parts or gaps limits assumed, chain 1 of 2) above, with N39D, E44Q, G99S, S189G, S190N, L217M, S269T counted along it
T1 sequence (Q8SPW0 21-119 limits assumed, chain 2 of 2): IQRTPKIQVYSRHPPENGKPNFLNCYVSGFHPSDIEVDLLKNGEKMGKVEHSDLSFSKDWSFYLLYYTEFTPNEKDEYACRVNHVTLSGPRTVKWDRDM

Row | Binder | FGF23 neutralizing activity IC50 (luciferase promoter assay) [3] [ng/mL] | Kd [4] [pM] | also measured
1 | antibody A_IgG4PE_R409K_QL (antibody) chain 1: QVQLVQSGAEVKKPGASVKVSCKASGYTFTNHYMHWVRQAPGQGLEWMGIINPISGSTSNAQKFQGRVTMTRDTSTSTVYMELSSLRSEDTAVYYCARDIVDAFDFWGQGTMVTVSSASTKGPSVFPLAPCSRSTSESTAALGCLVKDYFPEPVTVSWNSGALTSGVHTFPAVLQSSGLYSLSSVVTVPSSSLGTKTYTCNVDHKPSNTKVDKRVESKYGPPCPPCPAPEFEGGPSVFLFPPKPKDQLMISRTPEVTCVVVDVSQEDPEVQFNWYVDGVEVHNAKTKPREEQFNSTYRVVSVLTVLHQDWLNGKEYKCKVSNKGLPSSIEKTISKAKGQPREPQVYTLPPSQEEMTKNQVSLTCLVKGFYPSDIAVEWESNGQPENNYKTTPPVLDSDGSFFLYSKLTVDKSRWQEGNVFSCSVLHEALHNHYTQKSLSLSLGK chain 2: not shown |  |  | Kd [1]: 87000 pM; Kd [2]: 265000 pM
2 | antibody A-1 (antibody, V domains shown, VH J2H2B9_A; not shown: human kappa chain constant region) VH: QVQLVQSGAEVKKPGASVKVSCKASGYTFTNHYMHWVRQAPGQGLEWMGLINPWHGTFSNAQKFQGRVTMTRDTSTSTVYMELSSLRSEDTAVYYCARDAVDAFDFWGQGTMVTVSS VL: AIQLTQSPSSLSASVGDRVTITCRASQGISSALVWYQQKPGKAPKLLIYDASSLESGVPSRFSGSGSGTDFTLTISSLQPEDFATYYCQQFNDYFTFGPGTKVDIK | 3.5 | 8.22 | 
3 | antibody A_IgG4PE_R409K (antibody, copies: 2 + 2) heavy: not shown VL: AIQLTQSPSSLSASVGDRVTITCRASQGISSALVWYQQKPGKAPKLLIYDASSLESGVPSRFSGSGSGTDFTLTISSLQPEDFATYYCQQFNDYFTFGPGTKVDIK |  |  | Kd [1]: 324000 pM; Kd [2]: 912000 pM
4 | antibody A-4 (antibody, V domains shown, VL L3G12; not shown: human kappa chain constant region) VH: QVQLVQSGAEVKKPGASVKVSCKASGYTFTNHYMHWVRQAPGQGLEWMGIINPISGSTSNAQKFQGRVTMTRDTSTSTVYMELSSLRSEDTAVYYCARDYVDAFDFWGQGTMVTVSS VL: AIQLTQSPSSLSASVGDRVTITCRASQGISSALVWYQQKPGKAPKLLIYDASSLESGVPSRFSGSGSGTDFTLTISSLQPEDFATYYCQQMYDDFNFGPGTKVDIK | 1.9 | 8.74 | 
5 | antibody A-3 (antibody, V domains shown, VL L3G12; not shown: human kappa chain constant region) VH: QVQLVQSGAEVKKPGASVKVSCKASGYTFTNHYMHWVRQAPGQGLEWMGIINPISGSTSNAQKFQGRVTMTRDTSTSTVYMELSSLRSEDTAVYYCARDAVDAFDFWGQGTMVTVSS VL: AIQLTQSPSSLSASVGDRVTITCRASQGISSALVWYQQKPGKAPKLLIYDASSLESGVPSRFSGSGSGTDFTLTISSLQPEDFATYYCQQMYDDFNFGPGTKVDIK | 2.7 | 8.27 | 
6 | antibody A-6 (antibody, V domains shown, VL L1H8; not shown: human kappa chain constant region) VH: QVQLVQSGAEVKKPGASVKVSCKASGYTFTNHYMHWVRQAPGQGLEWMGIINPISGSTSNAQKFQGRVTMTRDTSTSTVYMELSSLRSEDTAVYYCARDYVDAFDFWGQGTMVTVSS VL: AIQLTQSPSSLSASVGDRVTITCRASQDVSTALLWYQQKPGKAPKLLIYDASSLESGVPSRFSGSGSGTDFTLTISSLQPEDFATYYCQQFNDYFTFGPGTKVDIK | 3.6 | 11.3 | 
7 | antibody A-2 (antibody, V domains shown, VH J2H2B9_Y; not shown: human kappa chain constant region) VH: QVQLVQSGAEVKKPGASVKVSCKASGYTFTNHYMHWVRQAPGQGLEWMGLINPWHGTFSNAQKFQGRVTMTRDTSTSTVYMELSSLRSEDTAVYYCARDYVDAFDFWGQGTMVTVSS VL: AIQLTQSPSSLSASVGDRVTITCRASQGISSALVWYQQKPGKAPKLLIYDASSLESGVPSRFSGSGSGTDFTLTISSLQPEDFATYYCQQFNDYFTFGPGTKVDIK | 3.4 | 8.08 | 
8 | antibody A-7 (antibody, V domains shown, VL 2L3H7; not shown: human kappa chain constant region) VH: QVQLVQSGAEVKKPGASVKVSCKASGYTFTNHYMHWVRQAPGQGLEWMGIINPISGSTSNAQKFQGRVTMTRDTSTSTVYMELSSLRSEDTAVYYCARDAVDAFDFWGQGTMVTVSS VL: AIQLTQSPSSLSASVGDRVTITCRASQGISSALVWYQQKPGKAPKLLIYDASSLESGVPSRFSGSGSGTDFTLTISSLQPEDFATYYCQQLYDDFDFGPGTKVDIK | 3.2 | 16.1 | 
9 | antibody A-5 (antibody, V domains shown, VL L1H8; not shown: human kappa chain constant region) VH: QVQLVQSGAEVKKPGASVKVSCKASGYTFTNHYMHWVRQAPGQGLEWMGIINPISGSTSNAQKFQGRVTMTRDTSTSTVYMELSSLRSEDTAVYYCARDAVDAFDFWGQGTMVTVSS VL: AIQLTQSPSSLSASVGDRVTITCRASQDVSTALLWYQQKPGKAPKLLIYDASSLESGVPSRFSGSGSGTDFTLTISSLQPEDFATYYCQQFNDYFTFGPGTKVDIK | 1.9 | 3.61 | 
10 | antibody A-8 (antibody, V domains shown, VL 2L3H7; not shown: human kappa chain constant region) VH: QVQLVQSGAEVKKPGASVKVSCKASGYTFTNHYMHWVRQAPGQGLEWMGIINPISGSTSNAQKFQGRVTMTRDTSTSTVYMELSSLRSEDTAVYYCARDYVDAFDFWGQGTMVTVSS VL: AIQLTQSPSSLSASVGDRVTITCRASQGISSALVWYQQKPGKAPKLLIYDASSLESGVPSRFSGSGSGTDFTLTISSLQPEDFATYYCQQLYDDFDFGPGTKVDIK | 2.4 | 6.7 | 
11 | antibody I100D (antibody, human IgG1, V domains shown, also called modified antibody I100) VH: QVQLVQSGAEVKKPGASVKVSCKASGYTFTNHYMHWVRQAPGQGLEWMGIINPISGSTSNAQKFQGRVTMTRDTSTSTVYMELSSLRSEDTAVYYCARDDVDAFDFWGQGTMVTVSS VL: AIQLTQSPSSLSASVGDRVTITCRASQGISSALVWYQQKPGKAPKLLIYDASSLESGVPSRFSGSGSGTDFTLTISSLQPEDFATYYCQQFNDYFTFGPGTKVDIK |  |  | Kd [5]: 219 pM; FGF23 neutralizing activity IC50 (luciferase promoter assay) [6]: > 100 ng/mL
12 | antibody A_IgG4PE_R409K_YTE (antibody, copies: 2 + 2) heavy: QVQLVQSGAEVKKPGASVKVSCKASGYTFTNHYMHWVRQAPGQGLEWMGIINPISGSTSNAQKFQGRVTMTRDTSTSTVYMELSSLRSEDTAVYYCARDIVDAFDFWGQGTMVTVSSASTKGPSVFPLAPCSRSTSESTAALGCLVKDYFPEPVTVSWNSGALTSGVHTFPAVLQSSGLYSLSSVVTVPSSSLGTKTYTCNVDHKPSNTKVDKRVESKYGPPCPPCPAPEFEGGPSVFLFPPKPKDTLYITREPEVTCVVVDVSQEDPEVQFNWYVDGVEVHNAKTKPREEQFNSTYRVVSVLTVLHQDWLNGKEYKCKVSNKGLPSSIEKTISKAKGQPREPQVYTLPPSQEEMTKNQVSLTCLVKGFYPSDIAVEWESNGQPENNYKTTPPVLDSDGSFFLYSKLTVDKSRWQEGNVFSCSVMHEALHNHYTQKSLSLSLGK VL: AIQLTQSPSSLSASVGDRVTITCRASQGISSALVWYQQKPGKAPKLLIYDASSLESGVPSRFSGSGSGTDFTLTISSLQPEDFATYYCQQFNDYFTFGPGTKVDIK |  |  | Kd [1]: 123000 pM; Kd [2]: 227000 pM
13 | antibody I100G (antibody, human IgG1, V domains shown, also called modified antibody I100) VH: QVQLVQSGAEVKKPGASVKVSCKASGYTFTNHYMHWVRQAPGQGLEWMGIINPISGSTSNAQKFQGRVTMTRDTSTSTVYMELSSLRSEDTAVYYCARDGVDAFDFWGQGTMVTVSS VL: AIQLTQSPSSLSASVGDRVTITCRASQGISSALVWYQQKPGKAPKLLIYDASSLESGVPSRFSGSGSGTDFTLTISSLQPEDFATYYCQQFNDYFTFGPGTKVDIK |  |  | Kd [5]: 149 pM; FGF23 neutralizing activity IC50 (luciferase promoter assay) [6]: > 100 ng/mL
14 | antibody A_IgG4PE_R409K_P (antibody, not shown: human kappa chain constant region; copies: 2 + 2) heavy: not shown light: AIQLTQSPSSLSASVGDRVTITCRASQGISSALVWYQQKPGKAPKLLIYDASSLESGVPSRFSGSGSGTDFTLTISSLQPEDFATYYCQQFNDYFTFGPGTKVDIK |  |  | Kd [1]: 76900 pM; Kd [2]: 192000 pM
